# Laboratory results taken from paper PMC10275869.
# How the values were obtained:
# Experiment in all cases: SEC; 100-200 μg of protein on a Superose 6 Increase 10/300GL column
# [1] = biological target: unstabilised MojV F (ectodomain with C-Tag, without clamp2) (Mòjiāng virus)
# [2] = biological target: LayV F clamp2 (prefusion Langya virus fusion glycoprotein ectodomain stabilised with the clamp2 molecular clamp) (Langya virus)
# [3] = biological target: unstabilised LayV F (ectodomain with C-Tag, without clamp2) (Langya virus)
substance,measurement,setting,value
"unstabilised MojV F (ectodomain with C-Tag, without clamp2) (domain or fragment)",stoichiometry N,[1],3
LayV F clamp2 (prefusion Langya virus fusion glycoprotein ectodomain stabilised with the clamp2 molecular clamp) (domain or fragment),stoichiometry N,[2],3
"unstabilised LayV F (ectodomain with C-Tag, without clamp2) (domain or fragment)",stoichiometry N,[3],3
